T1: FXa (Homo sapiens, UniProt P00742)
T1 chain 1: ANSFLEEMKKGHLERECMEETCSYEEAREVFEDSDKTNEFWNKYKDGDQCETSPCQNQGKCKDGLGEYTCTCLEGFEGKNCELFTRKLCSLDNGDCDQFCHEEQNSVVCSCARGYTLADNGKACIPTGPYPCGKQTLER
T1 chain 2: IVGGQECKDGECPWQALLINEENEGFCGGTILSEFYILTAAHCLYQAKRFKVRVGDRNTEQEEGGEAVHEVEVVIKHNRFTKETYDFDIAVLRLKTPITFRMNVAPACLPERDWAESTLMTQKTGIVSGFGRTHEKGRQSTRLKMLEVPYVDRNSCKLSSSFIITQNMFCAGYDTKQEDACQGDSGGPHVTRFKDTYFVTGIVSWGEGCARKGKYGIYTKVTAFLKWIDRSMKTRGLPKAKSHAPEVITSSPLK

T2: FVa (FVa2) (Homo sapiens, UniProt P12259)
T2 chain 1: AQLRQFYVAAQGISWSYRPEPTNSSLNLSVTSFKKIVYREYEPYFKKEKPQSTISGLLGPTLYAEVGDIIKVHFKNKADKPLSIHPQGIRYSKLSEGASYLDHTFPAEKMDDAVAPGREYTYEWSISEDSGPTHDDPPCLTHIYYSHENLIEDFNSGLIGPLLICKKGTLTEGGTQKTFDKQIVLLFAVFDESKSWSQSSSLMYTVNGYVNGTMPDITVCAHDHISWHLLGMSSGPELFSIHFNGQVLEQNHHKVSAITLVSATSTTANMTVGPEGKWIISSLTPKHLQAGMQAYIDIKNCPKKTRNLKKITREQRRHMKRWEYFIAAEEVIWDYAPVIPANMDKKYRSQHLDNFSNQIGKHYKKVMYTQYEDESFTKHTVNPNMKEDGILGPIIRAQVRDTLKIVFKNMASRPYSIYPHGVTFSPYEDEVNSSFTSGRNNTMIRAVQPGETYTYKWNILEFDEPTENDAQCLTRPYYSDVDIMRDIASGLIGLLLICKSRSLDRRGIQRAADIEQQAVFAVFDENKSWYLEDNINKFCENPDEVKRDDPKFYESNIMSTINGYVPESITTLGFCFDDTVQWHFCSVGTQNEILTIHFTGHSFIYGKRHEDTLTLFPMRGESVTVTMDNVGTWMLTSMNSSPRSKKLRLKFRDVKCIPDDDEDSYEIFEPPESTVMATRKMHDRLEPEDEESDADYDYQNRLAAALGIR
T2 chain 2: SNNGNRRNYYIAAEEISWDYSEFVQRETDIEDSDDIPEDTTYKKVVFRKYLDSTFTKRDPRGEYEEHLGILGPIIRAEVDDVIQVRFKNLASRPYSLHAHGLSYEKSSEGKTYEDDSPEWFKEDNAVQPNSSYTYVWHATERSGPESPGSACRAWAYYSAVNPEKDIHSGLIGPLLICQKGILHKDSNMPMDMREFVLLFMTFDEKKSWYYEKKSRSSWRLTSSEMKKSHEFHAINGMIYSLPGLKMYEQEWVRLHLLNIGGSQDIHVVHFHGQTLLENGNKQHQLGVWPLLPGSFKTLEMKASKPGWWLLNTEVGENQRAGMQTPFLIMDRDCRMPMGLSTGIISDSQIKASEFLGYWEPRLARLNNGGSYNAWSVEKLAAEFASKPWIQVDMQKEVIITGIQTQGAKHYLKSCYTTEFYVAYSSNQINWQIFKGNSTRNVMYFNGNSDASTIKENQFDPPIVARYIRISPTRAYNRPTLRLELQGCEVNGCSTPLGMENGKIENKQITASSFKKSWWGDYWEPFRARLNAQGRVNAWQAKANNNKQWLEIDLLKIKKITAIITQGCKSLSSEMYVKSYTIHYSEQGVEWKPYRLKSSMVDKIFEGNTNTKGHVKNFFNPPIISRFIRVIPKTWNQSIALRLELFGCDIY

T3: DEGR-FXa (Homo sapiens, UniProt P00742)
T3 chain 1: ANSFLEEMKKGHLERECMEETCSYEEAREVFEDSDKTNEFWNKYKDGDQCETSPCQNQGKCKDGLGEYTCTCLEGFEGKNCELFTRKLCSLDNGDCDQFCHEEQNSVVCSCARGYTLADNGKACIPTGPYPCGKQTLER
T3 chain 2: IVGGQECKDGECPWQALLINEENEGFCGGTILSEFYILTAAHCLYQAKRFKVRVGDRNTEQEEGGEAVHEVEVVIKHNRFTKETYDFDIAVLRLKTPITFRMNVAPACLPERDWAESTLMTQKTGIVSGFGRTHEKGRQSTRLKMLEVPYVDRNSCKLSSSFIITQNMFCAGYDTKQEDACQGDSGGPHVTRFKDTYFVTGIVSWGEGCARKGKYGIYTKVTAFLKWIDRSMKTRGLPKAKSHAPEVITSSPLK


Legend:
FXa = target: T1, FXa; experiment: prothrombin activation rate vs FXa
FVa (FVa2) [1] = target: T2, FVa (FVa2); experiment: global fit of activity
FVa (FVa2) [2] = target: T2, FVa (FVa2); experiment: global fit of activity, dimer competition model
FVa (FVa2) [3] = target: T2, FVa (FVa2); experiment: prothrombinase activity titration
FVa (FVa2) [4] = target: T2, FVa (FVa2); experiment: prothrombinase activity titration
FVa (FVa2) [5] = target: T2, FVa (FVa2); experiment: prothrombinase activity titration
DEGR-FXa = target: T3, DEGR-FXa; experiment: fluorescence of active-site-labeled FXa

Kd (FXa) [nM]	Kd (FVa (FVa2) [1]) [nM]	Kd (FVa (FVa2) [2]) [nM]	Kd (FVa (FVa2) [3]) [nM]	Kd (FVa (FVa2) [4]) [nM]	Kd (FVa (FVa2) [5]) [nM]	Kd (DEGR-FXa) [nM]	Binder
16	0.43	0.32	2.2	43	20	–	FXa (protein, C6PS, 5 mM Ca2+) chain 1: ANSFLEEMKKGHLERECMEETCSYEEAREVFEDSDKTNEFWNKYKDGDQCETSPCQNQGKCKDGLGEYTCTCLEGFEGKNCELFTRKLCSLDNGDCDQFCHEEQNSVVCSCARGYTLADNGKACIPTGPYPCGKQTLER chain 2: IVGGQECKDGECPWQALLINEENEGFCGGTILSEFYILTAAHCLYQAKRFKVRVGDRNTEQEEGGEAVHEVEVVIKHNRFTKETYDFDIAVLRLKTPITFRMNVAPACLPERDWAESTLMTQKTGIVSGFGRTHEKGRQSTRLKMLEVPYVDRNSCKLSSSFIITQNMFCAGYDTKQEDACQGDSGGPHVTRFKDTYFVTGIVSWGEGCARKGKYGIYTKVTAFLKWIDRSMKTRGLPKAKSHAPEVITSSPLK
–	–	–	–	–	–	600	DEGR-FXa (protein, DEGR active-site label, C6PS, 3 mM Ca2+) chain 1: ANSFLEEMKKGHLERECMEETCSYEEAREVFEDSDKTNEFWNKYKDGDQCETSPCQNQGKCKDGLGEYTCTCLEGFEGKNCELFTRKLCSLDNGDCDQFCHEEQNSVVCSCARGYTLADNGKACIPTGPYPCGKQTLER chain 2: IVGGQECKDGECPWQALLINEENEGFCGGTILSEFYILTAAHCLYQAKRFKVRVGDRNTEQEEGGEAVHEVEVVIKHNRFTKETYDFDIAVLRLKTPITFRMNVAPACLPERDWAESTLMTQKTGIVSGFGRTHEKGRQSTRLKMLEVPYVDRNSCKLSSSFIITQNMFCAGYDTKQEDACQGDSGGPHVTRFKDTYFVTGIVSWGEGCARKGKYGIYTKVTAFLKWIDRSMKTRGLPKAKSHAPEVITSSPLK
–	–	–	1.7	8	–	–	FXa (protein, C6PS, 3 mM Ca2+) chain 1: ANSFLEEMKKGHLERECMEETCSYEEAREVFEDSDKTNEFWNKYKDGDQCETSPCQNQGKCKDGLGEYTCTCLEGFEGKNCELFTRKLCSLDNGDCDQFCHEEQNSVVCSCARGYTLADNGKACIPTGPYPCGKQTLER chain 2: IVGGQECKDGECPWQALLINEENEGFCGGTILSEFYILTAAHCLYQAKRFKVRVGDRNTEQEEGGEAVHEVEVVIKHNRFTKETYDFDIAVLRLKTPITFRMNVAPACLPERDWAESTLMTQKTGIVSGFGRTHEKGRQSTRLKMLEVPYVDRNSCKLSSSFIITQNMFCAGYDTKQEDACQGDSGGPHVTRFKDTYFVTGIVSWGEGCARKGKYGIYTKVTAFLKWIDRSMKTRGLPKAKSHAPEVITSSPLK

Reference: PMC3544317 (2014)
